Experimental findings from US20130189283A1 (Amgen, published 2013) are described below.

Assay [1] concerns the target T1, Soluble human TR2 (huTR2 long-huFc (IgG1)) (human).
T1 construct: also called Trail Receptor 2; TRAIL (huTR2)
Briefly: BIAcore solution equilibrium assay: antibody incubated with TR2, free TR2 read on immobilised antibody 16449. Background: Surface plasmon resonance follows binding to a sensor surface in real time, without labels.

Assay [2] deals with T2, Soluble human IL-17R (huIL-17R-FpH) (human, UniProt Q96F46 33-320).
T2 construct: also called IL-17R extracellular domain
T2 sequence: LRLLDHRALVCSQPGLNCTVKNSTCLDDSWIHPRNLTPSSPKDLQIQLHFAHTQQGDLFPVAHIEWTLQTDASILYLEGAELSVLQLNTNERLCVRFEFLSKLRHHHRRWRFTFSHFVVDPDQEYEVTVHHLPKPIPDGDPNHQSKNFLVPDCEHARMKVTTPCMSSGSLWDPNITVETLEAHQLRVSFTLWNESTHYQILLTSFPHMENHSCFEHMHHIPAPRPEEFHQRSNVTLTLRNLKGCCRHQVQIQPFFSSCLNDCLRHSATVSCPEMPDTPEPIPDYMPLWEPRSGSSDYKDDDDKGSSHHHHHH
Briefly: BIAcore solution equilibrium assay: antibody incubated with IL-17R, free IL-17R read on immobilised antibody 16429.

T1 sequence (chain, as listed by the source limits assumed): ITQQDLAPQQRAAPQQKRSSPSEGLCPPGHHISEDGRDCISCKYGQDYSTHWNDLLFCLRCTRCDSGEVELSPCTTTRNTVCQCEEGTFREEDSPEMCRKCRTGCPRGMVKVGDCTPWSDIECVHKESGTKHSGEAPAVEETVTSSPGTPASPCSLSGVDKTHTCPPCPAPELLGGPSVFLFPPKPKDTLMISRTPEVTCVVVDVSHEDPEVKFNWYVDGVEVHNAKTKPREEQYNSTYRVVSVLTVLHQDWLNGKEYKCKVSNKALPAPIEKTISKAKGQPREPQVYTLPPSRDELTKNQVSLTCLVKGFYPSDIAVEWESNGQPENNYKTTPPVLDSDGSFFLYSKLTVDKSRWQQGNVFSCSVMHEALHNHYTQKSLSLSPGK

B1: Antibody 10183 (antibody, V domains shown)
VH: QVQLQESGPGLVKPSQTLSLTCTVSGGSISSGDYFWSWIRQLPGKGLEWIGHIHNSGTTYYNPSLKSRVTISVDTSKKQFSLRLSSVTAADTAVYYCARDRGGDYAYGMDVWGQGTTVTVSS
VL: EIVLTQSPGTLSLSPGERATLSCRASQGISRSRLAWYQQKPGQAPSLLIYGASSRATGIPDRFSGSGSGTDFTLTISRLEPEDFAVYYCQQFGSSPWTFGQGTKVEIK
Take B1: the binding result in assay [1] is reported as “no binding (tested: 50 µM antibody with 10 nM TR2)”.

B2: Antibody 4341 (antibody, human IgG1, kappa, V domains shown)
VH: QVQLQESGPGLVKPSQTLSLTCTVSGGSISSGDYFWSWIRQLPGKGLEWIGHIHNSGTTYYNPSLKSRVTISVDTSKKQFSLRLSSVTAADTAVYYCARDRGGDYAYGMDVWGQGTTVTVSS
VL: EIVLTQSPGTLSLSPGERATLSCRASQGISRSELAWYQQKPGQAPSLLIYGASSRATGIPDRFSGSGSGTDFTLTISRLEPEDFAVYYCQQFGSSPWTFGQGTKVEIKR
notes: also called LC:Y53E)
With B2, the binding result in assay [1] is listed as “no binding (tested: 50 µM antibody with 10 nM TR2)”.

B3: Antibody 4241 (antibody, human IgG1, kappa, V domains shown)
VH: QVQLQESGPGLVKPSQTLSLTCTVSGGSISSGDYFWSWIRQLPGKGLEWIGHIHNSGTTYYNPSLKSRVTISVDTSKKQFSLRLSSVTAADTAVYYCARDRGGDYEYGMDVWGQGTTVTVSS
VL: EIVLTQSPGTLSLSPGERATLSCRASQGISRSALAWYQQKPGQAPSLLIYGASSRATGIPDRFSGSGSGTDFTLTISRLEPEDFAVYYCQQFGSSPWTFGQGTKVEIKR
notes: also called LC:Y53A)
With B3, the binding result in assay [1] is reported as “no binding (tested: 50 µM antibody with 10 nM TR2)”.

B4: Antibody 10184 (antibody, V domains shown)
VH: QVQLQESGPGLVKPSQTLSLTCTVSGGSISSGDYFWSWIRQLPGKGLEWIGHIHNSGTTYYNPSLKSRVTISVDTSKKQFSLRLSSVTAADTAVYYCARDRGGDYRYGMDVWGQGTTVTVSS
VL: EIVLTQSPGTLSLSPGERATLSCRASQGISRSRLAWYQQKPGQAPSLLIYGASSRATGIPDRFSGSGSGTDFTLTISRLEPEDFAVYYCQQFGSSPWTFGQGTKVEIK
For B4, in assay [1], the binding result was “no binding (tested: 50 µM antibody with 10 nM TR2)”.

B5: Antibody 16435 (antibody, human IgG2, kappa, V domains shown)
VH: QVQLVQSGAEVKKPGASVKVSCKASGYTFTRYGISWVRQAPGQGLEWMGWISTYSGNTNYAQKLQGRVTMTTDTSTSTAYMELRSLRSDDTAVYYCARAQLYFDYWGQGTLVTVSS
VL: EIVMTQSPATLSVSPGERATLSCRASQSVSSNLAWFQQKPGQAPRLLIYDASTRATGVPARFSGSGSGTEFTLTISSLQSEDFAVYYCQQYDNWPLTFGGGTKVEIKR
notes: also called LC: P66L, D90E
B5: the binding result in assay [2] is given as “no binding (tested: 30 µM antibody with 30 nM IL-17R)”.

B6: Antibody 16438 (antibody, V domains shown)
VH: QVQLVQSGAEVKKPGASVKVSCKASGYTFTRYGISWVRQAPGQGLEWMGWISTYSGNTNYAQKLQGRVTMTTDTSTSTAYMELRSLRSDDTAVYYCARRQQYFDYWGQGTLVTVSS
VL: EIVMTQSPATLSVSPGERATLSCRASQSVSSNLAWFQQKPGQAPRLLIYDASTRATGVPARFSGSGSGTEFTLTISSLQSEDFAVYYCQQYDNWPLTFGGGTKVEIK
On to B6, for which the binding result in assay [2] was “no binding (tested: 30 µM antibody with 30 nM IL-17R)”.

B7: Antibody 16441 (antibody, V domains shown)
VH: QVQLVQSGAEVKKPGASVKVSCKASGYTFTRYGISWVRQAPGQGLEWMGWISTYSGNTNYAQKLQGRVTMTTDTSTSTAYMELRSLRSDDTAVYYCARAQQYFDYWGQGTLVTVSS
VL: EIVMTQSPATLSVSPGERATLSCRASQSVSSNLAWFQQKPGQAPRLLIYDASTRATGVPARFSGSGSGTEFTLTISSLQSEDFAVYYCQQYDNWPLTFGGGTKVEIK
For B7, in assay [2], the binding result was “no binding (tested: 30 µM antibody with 30 nM IL-17R)”.

B8: Antibody 16444 (antibody, human IgG2, kappa, V domains shown)
VH: QVQLVQSGAEVKKPGASVKVSCKASGYTFTRYGISWVRQAPGQGLEWMGWISTYSGNTNYAQKLQGRVTMTTDTSTSTAYMELRSLRSDDTAVYYCARAQQYFDYWGQGTLVTVSS
VL: EIVMTQSPATLSVSPGERATLSCRASQSVSSNLAWFQQKPGQAPRLLIYDASTRATGVPARFSGSGSGTEFTLTISSLQSEDFAVYYCQQYDNAPLTFGGGTKVEIKR
notes: also called LC: P66L, D90E, W114A
Consider B8, for which the binding result in assay [2] was “no binding (tested: 30 µM antibody with 30 nM IL-17R)”.

B9: Antibody 16439 (antibody, V domains shown)
VH: QVQLVQSGAEVKKPGASVKVSCKASGYTFTRYGISWVRQAPGQGLEWMGWISTYSGNTNYAQKLQGRVTMTTDTSTSTAYMELRSLRSDDTAVYYCARRQQYFDYWGQGTLVTVSS
VL: EIVMTQSPATLSVSPGERATLSCRASQSVSSNLAWFQQKPGQAPRLLIYDASTRATGVPARFSGSGSGTEFTLTISSLQSEDFAVYYCQQYDNAPLTFGGGTKVEIK
For B9, in assay [2], the binding result is listed as “no binding (tested: 30 µM antibody with 30 nM IL-17R)”.

B10: Antibody 16440 (antibody, V domains shown)
VH: QVQLVQSGAEVKKPGASVKVSCKASGYTFTRYGISWVRQAPGQGLEWMGWISTYSGNTNYAQKLQGRVTMTTDTSTSTAYMELRSLRSDDTAVYYCARAQQYFDYWGQGTLVTVSS
VL: EIVMTQSPATLSVSPGERATLSCRASQSVSSNLAWFQQKPGQAPRPLIYDASTRATGVPARFSGSGSGTDFTLTISSLQSEDFAVYYCQQYDNWPLTFGGGTKVEIK
As to B10, the binding result in assay [2] was “no binding (tested: 30 µM antibody with 30 nM IL-17R)”.
